Data as given in patent US20250270315A1 (ELPISCIENCE SUZHOU BIOPHARMA, published 2025).

Legend:
[1] = target: T1, mFc tagged human SIRPα v1 ECD recombinant protein (human, UniProt P78324 31-373); test: competitive ELISA binning, mFc-SIRPα v1 ECD; competitor 042c
T1 construct: extracellular domain; Bought from Biointron; not shown: mouse IgG Fc (mFc) tag
Experimental: (§1) Competitive ELISA assay was used for epitope binning of purified chimeric antibodies. Briefly excessive competitor antibody and mFc tagged human SIRPα v1 ECD recombinant protein were co-incubated with ELISA microplate coated antibody. After washing, HRP labeled anti-mouse Fc 2nd antibody (Sigma) was added and incubated at 37° C. for 1 hour. Then, 100 μl/well of TMB solution (Biotechnology) was added. After incubation for 15 minutes at room temperature, the reaction was stopped by the addition of 50 μl of 1N HCl. OD 450 nm was read. Competition ratio was calculated. The antibodies that can compete each other for binding to SIRPα may have related binding epitopes.

[2] = target: T1, mFc tagged human SIRPα v1 ECD …; test: competitive ELISA binning, mFc-SIRPα v1 ECD; competitor hu1H9G4
Experimental: as §1

[3] = target: T2, human SIRPα v2 ECD recombinant protein (tag not given) (human); test: competitive ELISA, coated human SIRPα v2 ECD, blocked ligand mFc tagged human CD47 ECD
T2 construct: extracellular domain; also called ELISA microplate coated human SIRPα v2 ECD
Experimental: Competitive ELISA assay was used to determine whether the purified chimeric antibodies can block CD47 and SIRPα interaction. Briefly, antibody and mFc tagged human CD47 ECD recombinant protein were co-incubated with ELISA microplate coated human SIRPα v1 ECD (FIGS. 6A and 6B) or human SIRPα v2 ECD (FIGS. 7A and 7B) recombinant protein. After washing, HRP labeled anti-mouse Fc 2nd antibody (Sigma) was added and incubated at 37° C. for 1 hour. Then, 100 μl/well of TMB solution (Biotechnology) was added. After incubation for 15 minutes at room temperature, the reaction was stopped by the addition of 50 μl of 1N HCl. OD 450 nm was read. Blocking ratio was determined by blockade of human CD47 ECD recombinant protein binding to ELISA microplate coated human SIRPα ECD recombinant protein. Other than 005, all antibodies as tested can block interaction between human CD47 and different human SIRPα variants.

T1 sequence (P78324 31-373): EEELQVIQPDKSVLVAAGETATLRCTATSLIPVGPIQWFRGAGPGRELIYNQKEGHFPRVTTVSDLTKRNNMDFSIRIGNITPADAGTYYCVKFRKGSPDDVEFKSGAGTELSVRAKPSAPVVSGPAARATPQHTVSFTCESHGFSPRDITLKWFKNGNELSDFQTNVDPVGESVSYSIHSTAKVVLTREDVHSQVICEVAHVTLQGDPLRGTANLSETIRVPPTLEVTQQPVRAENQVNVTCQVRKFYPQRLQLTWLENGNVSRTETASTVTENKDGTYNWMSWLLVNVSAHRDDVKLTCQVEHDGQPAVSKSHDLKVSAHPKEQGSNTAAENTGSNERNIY

% Competition [1]: 19.1%
% Competition [2]: 15.3%
IC50 (read off the curve) [3]: ~2 nM
B1: 025c (antibody, V domains shown)
VH: EVQLQQSGAELVKPGASVKLSCTASGFNIKDYYMHWVKQRTEQGLEWIGRIDPEDGETKYAPKFQGKATITADTSSNTAYLQLSSLTSEDTAVYYCDRGLAYWGQGTLVTVSA
VL: QIVLTQSPAIMSASPGEKVTLTCSASSSVSSSYLYWYQQKPGSSPKLWIYSTSNLASGVPARFSGSGSGTSYSLTISSMEAEDAASYFCHQWSSYPYTFGGGTKLEIK
notes: also called chimeric antibody 025c; parental antibody of 025c
